Consider one molecule from patent publication US20100168016A1, “DIAGNOSIS AND TREATMENT OF DISEASES CAUSED BY MISFOLDED PROTEINS” (THE JACKSON LABORATORY, priority 2007, published 2010).

The test system of test [1] is sti/sti embryonic fibroblasts. The test is described as follows: serine-induced cell death in embryonic fibroblasts. Conditions: ANKRD16^CAST/+; sti/sti fibroblasts vs sti/sti, increasing serine. It is filed as cell-based, mouse. An excerpt: FIG. 5. A graph depicting viability curves for mouse embryonic fibroblasts (MEFs) with increasing concentrations of serine in the culture media. ANKRD 16 (Stim^CAST) rescues serine-mediated cell death in sti/sti fibroblasts.
We analyzed serine-induced cell death in +/+, ANKRD16^CAST/+; sti/sti, and sti/sti embryonic fibroblasts. Mouse embryonic fibroblasts were isolated from mouse embryos carrying no mutation (WT; C57BL/6J), the CAST-derived ANKRD16 gene (ANKRD16^CAST/+) and the sticky (sti/sti) mutation, or carrying the C57BL/6 ANKRD16 gene and the sti mutation (sti/sti).

The subject of test [2] is sti/sti Purkinje cells. Description: Purkinje cell survival in sti/sti mice carrying the Pcp2-driven ANKRD16 transgene. It is filed as in vivo, mouse. An excerpt: To determine if ANKRD16 can rescue neuron death in a cell autonomous fashion, we transgenically expressed the ANKRD16 cDNA in Purkinje cells and examined the role of this transgene in Purkinje cell survival in sti/sti mice. ANKRD16 coding sequence was amplified by polymerase chain reaction from cDNA by using Pfu DNA polymerase (Stratagene), purified by agarose gel electrophoresis and ligated into the expression vector. Transgenic (TgPcp2-ANKRD16) mice carrying the full-length ANKRD16 cDNA (ANKRD16^361 or CAST allele) were generated on the inbred C57BL/6J background by microinjection of the purified DNA into C57BL/6J zygotes.

Another test has as its system sticky mutant mice. Description: fertility (number of live offspring) of sticky mutant mice. It is filed as in vivo, mouse. The following applies: ANKRD16^CAST crossed into sti/sti; 7 matings, females 8-9 weeks. The procedure: FIGS. 7. A graph depicting litter size (y axis) in WT, STIM and STI mice (x axis). Expression of ANKRD16 protein can restore the reduced fertility in sticky mutant mice. “WT” refers to C57BL/6J wild type mice, “STIM” refers to sticky mutant mice carrying the modifier gene ANKRD16, and STI means homozygous sticky mutant mice.
Female mice of the various genotypes at the age of at 8-9 weeks were mated and the fertility was determined by counting the number of live offspring. When mating C57BL/6J mice (WT), which are wild type, the average litter size was 6.87 from 8 matings with a total of 55 offspring. […] When the modifier gene ANKRD16^CAST was crossed into the sti/sti mutations, the litter size was restored to normal with 6.51 pups from 7 matings with a total of 46 offspring. […] The CAST ANKRD16 is the full length version of ANKRD16, also called ANKRD^361.

For test [3], the system named is sti/sti Purkinje cells. Description: ubiquitinated protein inclusions in sti/sti Purkinje cells. It is filed as in vivo, mouse. The following applies: sti/sti mice, 4, 6 and 12 weeks of age. An excerpt: FIGS. 9A and B. Graphs illustrating that the expression of full length ANKRD16 reduces protein inclusions in sti/sti Purkinje cells. Sti/sti means homozygous sticky mice (B6.Cg-Aarssti/J). ANKRD16; sti/sti means homozygous sticky mice intercrossed with mice expressing full length ANKRD16. […] 4W means brains were isolated from 4 week old mice, 6W for 6 week old mice and 12 W for 12 week old mice.
Brains from homozygous sticky mice (sti/sti; B6.Cg-Aarssti/J; available from The Jackson Laboratory Stock Number 002560) and sticky mice intercrossed with transgenic mice expressing the full length ANKRD16, were isolated at the age of 4 weeks, 6 weeks and 12 weeks. The brains were processed for sectioning and antibody staining using standard histological methods. Sagittal sections were prepared and immunostained with antibodies against ubiquitin and calbindin. The antibodies against calbidin D-28 were used to visualize Purkinje cells. The antibodies against ubiquitin were used to visualize ubiquitinated protein aggregates. Purkinje cells with ubiquitinated aggregates were counted from three sections spaced at 100 micrometer beginning at midline and working laterally per mouse. Three mice from each genotype were analyzed. The total number of Purkinje cells with inclusions as well as the % of remaining Purkinje cells with inclusions are shown in the graphs in FIGS. 9A and 9B.

The subject of test [4] is ubiquitin/proteasome pathway. The test is described as follows: UbG76V-GFP proteasome reporter in mouse embryonic fibroblasts (FACS). Conditions: ANKRD16^CAST double transgenic fibroblasts, 1.5 uM epoximicin for 6 hours. It is filed as cell-based. As to the method: FIG. 13. […] Mouse embryonic fibroblasts were analyzed from UbG76V-GFP transgenic and UbG76V-GFP; ANKRD16^CAST double transgenic mice; untreated and treated with 1000 nM epoximicin for 6; 12 or 18 hours (hr). The presence of the ANKRD16^CAST allele leads to reduced GFP intensity which correlates with increased proteasome activity.
Two lines of transgenic mice, UB^G76V-1 and UB^G76V-2, were generated with a ubiquitin-fusion GFP driven by the chicken β-actin promoter (Lindsten et al., 2003a; Lindsten et al., 2003b). UbG76V-GFP transgenic mice are available from The Jackson Laboratory (stock number 008111 and 008112). These mice ubiquitously express transcripts for the transgene, but as expected from the short half-life of the modified GFP protein, GFP is undetectable in all tissues analyzed. […]
UbG76V-GFP transgenic mice were intercrossed with the BAC transgenic mice carrying the CAST allele of ANKRD16, which gives rise to full length ANKRD16 mRNA and protein, yielding in double transgenic called UbG76V-GFP; ANKRD16^CAST. […] Using Western blot analysis the expression of ANKRD16 was analyzed showing an upregulation of ANKRD16 in the double transgenic mice UbG76V-GFP; ANKRD16 6^CAST. […]

Test [5] concerns mouse embryonic fibroblasts. The test is described as follows: epoximicin-induced cell death of mouse embryonic fibroblasts (propidium iodide, FACS). It is filed as cell-based. Conditions: epoximicin 400 nM to 2500 nM for 18 hours. The procedure:
FIG. 14. […] Fibroblasts with different genotypes were compared: WT means C57BL/6J; UbG76VGFP transgenic and ANKRD16^CAST UbG76V-GFP double transgenic.
Mouse embryonic fibroblasts were treated with 1.5 uM epoximicin for 6 hours before the GFP (green fluorescent protein) levels were analyzed by fluorescence microscopy (data not shown) or fluorescence-activated cell sorting (FACS) analysis (FIG. 13). Mouse embryonic fibroblasts not expressing the ANKRD16^CAST allele show a higher GFP level. […] The proteasome inhibitor epoximicin prevents the rapid degradation of GFP in the proteasome. […] Further the embryonic fibroblasts from the C57BL/6J wild type (WT), UbG76V-GFP transgenic and UbG76V-GFP; ANKRD16^CAST double transgenic mice were treated with various concentrations of epoximicin for 18 hours. The epoximicin concentrations ranged from 400 nM to 2500 nM (see FIG. 14). Fibroblasts were stained with propidium iodide to evaluate the percentage of cell death by FACS analysis.

B1: ANKRD16^CAST: full length (361 amino acid) ANKRD16 from the CAST allele, expressed from congenic region or transgene in mice and cells (protein)
chain: MALPGDPRRLCRLVQEGRLRDLQEELAVARGCRGPAGDTLLHCAARHGRQDILAYLVEAWSMDIEATNRDYKRPLHEAASMGHRDCVRYLLGRGAVVDSLKKADWTPLMMACTRKNLDVIQDLVEHGANPLLKNKDGWNSFHIASREGHPVILRYLLTVCPDAWKTESNIRRTPLHTAAMHGCLEAVQVLLERCHYEPDCRDNCGVTPFMDAIQCGHVSIAKLLLEQHKACSSAADSMGAQALHRAAVTGQDEAIRFLVCGLGIDVDVRAKSSQLTALHYAAKEGQTNTVQTLLSLGADINSTDERNRSVLHLACAGQHVACTRLLLQSGLKDSADLTGTLAQQLMRSVDILQDFDHDVKS
Consider B1, for which the “rescue from serine-induced cell death” value in test [1] is listed as “completely rescued”. For the same molecule, the ataxia result with sti/sti Purkinje cells [2] (sti/sti mice carrying the transgene, 3 months of age) is reported as “no signs of ataxia”. Besides, in the test with sti/sti Purkinje cells [2] (sti/sti mice, Pcp2 (L7) promoter), the “Purkinje cell death (calbindin D-28 immunohistochemistry)” value was “suppression of Purkinje cell death”. In addition, in the test on sticky mutant mice, the litter size is given as 6.51 pups. In addition, the “Purkinje cells with protein aggregates” value in the test with sti/sti Purkinje cells [3] is listed as “reduces Purkinje cells with protein aggregates”. In addition, in test [4], the “green fluorescence from GFP” value is “greatly reduced”. In addition, the cell death result in test [5] is “reduced cell death”.
